Consider 33 substances from patent publication US20060134709A1.

For orientation: Kd means the concentration at which binding is half-saturated. The low end stands for tighter binding, the high end for weaker binding. What is called koff is the rate constant with which the complex falls apart. Broadly, the kon is a measure of how fast the partners come together. Low values mean slow association, high ones fast association. One may read the EC50 (read off the curve) as the concentration that produces a half-maximal response.

Experiment [1] concerns the target soluble FcγRIIIA tetrameric complex (human) (UniProt P08637). Kind of experiment: FACS titration of tetramer, 1.4 to 0.0006 µM.
For experiment [2], the target named is FcγRIIB-Fc fusion protein (human) (UniProt P31994). Nature of the experiment: BIAcore.
FcγRIIB-Fc fusion protein (human), sequence (P31994 43-217): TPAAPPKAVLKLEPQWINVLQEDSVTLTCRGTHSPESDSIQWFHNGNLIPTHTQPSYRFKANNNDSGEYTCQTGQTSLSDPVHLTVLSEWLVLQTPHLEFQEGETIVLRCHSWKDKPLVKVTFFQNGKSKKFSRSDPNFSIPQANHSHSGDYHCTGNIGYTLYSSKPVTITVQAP
Experiment [3] addresses soluble monomeric FcγRIIIA-linker-AVITAG (human) (UniProt P08637). Nature of the experiment: BIAcore.
Experiment [4] has as its target FcγRIIB-Fc fusion protein (human) (UniProt P31994). Nature of the experiment: ELISA of FcγRIIB-Fc binding; OD listed beside the sensorgrams.
The target of experiment [5] is soluble monomeric FcγRIIIA-linker-AVITAG (human) (UniProt P08637). Kind of experiment: ELISA.
soluble monomeric FcγRIIIA-linker-AVITAG (human), sequence (P08637 17-203 F176V limits assumed, form in doubt): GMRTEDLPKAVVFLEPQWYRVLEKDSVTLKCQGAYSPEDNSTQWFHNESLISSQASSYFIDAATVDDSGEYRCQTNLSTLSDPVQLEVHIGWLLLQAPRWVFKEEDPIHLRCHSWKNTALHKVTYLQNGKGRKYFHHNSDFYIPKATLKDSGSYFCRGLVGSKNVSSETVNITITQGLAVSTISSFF
Experiment [6] has as its target FcγRIIIA 158V (human) (UniProt P08637). Nature of the experiment: BIAcore.
In experiment [7] the target is soluble FcγRIIB (human) (UniProt P31994). Kind of experiment: ELISA. On the technique in general: In an ELISA, binding on a coated surface is turned into a signal by an enzyme label.
Experiment [8] deals with FcγRIIB-Fc fusion protein (human) (UniProt P31994). Kind of experiment: BIAcore. The source holds these as a separate data set. A general note: SPR reads the build-up and loss of mass on a sensor chip optically.
The target is the same in experiment [9]. Nature of the experiment: BIAcore: ch4-4-20 captured on BSA-FITC, FcγRIIB-Fc at two concentrations, separate fits, average of the two.
The target is the same in experiment [10]. Kind of experiment: ELISA.
The target in experiment [11] is soluble monomeric FcγRIIIA-linker-AVITAG (human) (UniProt P08637). Nature of the experiment: BIAcore: ch4-4-20 captured on BSA-FITC, FcγRIIIA at 200 nM and 800 nM, separate fits, average of the two concentrations.
Experiment [12] shares this target. Kind of experiment: ELISA of FcγRIIIA binding; OD listed beside the sensorgrams.
Experiment [13] concerns the target C1q. Nature of the experiment: BIAcore; 2B6 captured on soluble CD32B (2bLAvi) on a CM-5 chip, C1q injected.
The target of experiment [14] is monomeric human IgG. Nature of the experiment: direct ELISA on plate-coated human IgG, detection with DJ130c and anti-mouse peroxidase.
Experiment [15] concerns the target monomeric human IgG. Nature of the experiment: ELISA.

C1q, sequence (P02745 23-245, chain 1 of 3): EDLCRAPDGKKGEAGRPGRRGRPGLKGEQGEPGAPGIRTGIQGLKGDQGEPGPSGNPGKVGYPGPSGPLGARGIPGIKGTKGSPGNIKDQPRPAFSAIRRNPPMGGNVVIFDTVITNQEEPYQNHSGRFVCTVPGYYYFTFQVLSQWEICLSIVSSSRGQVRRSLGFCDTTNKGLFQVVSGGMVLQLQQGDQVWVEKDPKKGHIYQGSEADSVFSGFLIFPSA
C1q, sequence (P02746 28-253, chain 2 of 3, further chain): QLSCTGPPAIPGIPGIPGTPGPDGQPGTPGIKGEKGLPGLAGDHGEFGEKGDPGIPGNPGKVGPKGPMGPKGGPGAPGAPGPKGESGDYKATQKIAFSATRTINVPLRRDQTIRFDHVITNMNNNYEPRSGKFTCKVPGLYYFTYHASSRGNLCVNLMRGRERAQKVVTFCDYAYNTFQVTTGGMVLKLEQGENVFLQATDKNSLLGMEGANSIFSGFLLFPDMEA
C1q, sequence (P02747 29-245, chain 3 of 3, further chain): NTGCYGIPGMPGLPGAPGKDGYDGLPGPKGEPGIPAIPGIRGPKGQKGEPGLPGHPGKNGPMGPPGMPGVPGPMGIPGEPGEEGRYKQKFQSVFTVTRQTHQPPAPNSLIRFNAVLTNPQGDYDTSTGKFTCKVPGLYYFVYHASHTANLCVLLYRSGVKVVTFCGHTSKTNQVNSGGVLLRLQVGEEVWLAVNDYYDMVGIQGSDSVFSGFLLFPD
FcγRIIIA 158V (human), sequence (P08637 17-208 F176V): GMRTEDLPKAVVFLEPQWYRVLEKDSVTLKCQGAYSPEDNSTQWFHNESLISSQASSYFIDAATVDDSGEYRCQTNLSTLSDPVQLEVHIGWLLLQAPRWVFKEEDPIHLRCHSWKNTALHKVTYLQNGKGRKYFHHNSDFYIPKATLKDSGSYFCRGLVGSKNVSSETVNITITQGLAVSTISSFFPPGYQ
soluble FcγRIIIA tetrameric complex (human), sequence (P08637 17-203 F176V limits assumed, form in doubt, one chain of several): as the sequence (P08637 17-203 F176V limits assumed, form in doubt) above

As to “Aga2p-CH1-CH3 fusion (pYD-CH1), wild type Fc on yeast”, in experiment [1], the Kd was found to be 6 nM.
In experiment [2], ch4-4-20 K288M, K334E (antibody) came in with a Kd of 95.6 nM and an off-rate (koff) of 0.089 s⁻¹. Moreover, in [3], the Kd came to 75.4 nM, the koff worked out at 0.1 s⁻¹ and the kon was found to be 1.37e+06 M⁻¹ s⁻¹. The substance further showed an ELISA, OD in experiment [4] of 0.13 OD. Further, in experiment [5], the ELISA, OD was found to be 1.1 OD; the fold increase vs wt amounted to 3 x; the fold vs wt turned out to be 3 X.
As for ch4-4-20 K334E, R292L (antibody), the Kd in experiment [2] is 108 nM; in experiment [3], 70.2 nM. Besides, the figures for the koff in experiment [2] and in experiment [3] were 0.107 s⁻¹ and 0.105 s⁻¹, respectively. This substance also gave a kon in experiment [3] of 1.43e+06 M⁻¹ s⁻¹. Besides, the ELISA, OD in [4] is 0.1 OD; in experiment [5], 1.25 OD.
On to ch4-4-20 S298N, K360R, N361D (antibody), for which the Koff WT/Mut in experiment [2] is 0.67.
ch4-4-20 H268N, P396L (antibody) came in with a Koff WT/Mut in experiment [6] of 0.92. In experiment [2], this substance returned a Kd of 46.6 nM, a Koff WT/Mut of 1.04 and a koff of 0.036 s⁻¹. In [3], this substance showed a Kd of 178 nM and a koff of 0.159 s⁻¹. In experiment [7], the fold increase vs wt is 4.5 x and the fold vs wt turned out to be 4.5 X. In addition, in experiment [5], the fold increase vs wt came to 2.2 x and the fold vs wt was 2.2 X.
In experiment [2], ch4-4-20 P247L, N421K (antibody) displayed a Kd of 66 nM and a koff of 0.065 s⁻¹. Further, in [3], the Kd was found to be 62 nM and the koff was found to be 0.108 s⁻¹. In [5], the fold increase vs wt turned out to be 3 x and the fold vs wt was 3 X.
Substance ch4-4-20 E233G (antibody) displayed a Koff WT/Mut in experiment [2] of 0.54.
ch4-4-20 P217S, P396L (antibody): the Koff WT/Mut in [6] amounted to 1.17; in [2] it was 0.95. The figures for the fold increase vs wt in experiment [7] and in experiment [5] were 4.5 x and 1.6 x, respectively.
In experiment [2], ch4-4-20 F243I, V379L, G420V (antibody) gave a Kd of 93.4 nM and a koff of 0.101 s⁻¹.
With ch4-4-20 K334E, T359N, T366S (antibody), in experiment [2], the Kd was 72 nM and the koff was 0.11 s⁻¹. In [3], this substance had a Kd of 55.2 nM and a koff of 0.128 s⁻¹. Also, in experiment [5], the fold increase vs wt worked out at 1.5 x and the fold vs wt worked out at 1.5 X.
As to ch4-4-20 Y319F, P352L, P396L (antibody), the Kd in [2] worked out at 55.7 nM; in experiment [3], 125 nM.
For chimeric 4-4-20 antibody, wild type Fc, the Kd amounted to 61.4 nM in experiment [8], 94 nM in experiment [2] and 198 nM in experiment [3]. For the same substance, the koff in experiment [8] worked out at 0.085 s⁻¹; in experiment [2], 0.094 s⁻¹; in [9], 0.0847 s⁻¹. In addition, the ELISA, OD in [10] amounted to 0.4 OD; in experiment [5], 0.5 OD.
Consider “ch4-4-20 K288R, T307A, K344E, P396L (antibody)”, for which the Koff WT/Mut in [6] stood at 1.27; in [2], 0.89. Further, the fold increase vs wt in [7] stood at 2.3 x; in experiment [5], 4.1 x.
For ch4-4-20 K261N, K210M, P396L (antibody), the Koff WT/Mut stood at 1.29 in experiment [6] and 0.85 in experiment [2]. Further, the fold increase vs wt is 4.2 x in experiment [7] and 2 x in [5].
With ch4-4-20 F372Y (antibody), the Kd in experiment [11] was found to be 84.8 nM. Also, the ELISA, OD was determined as 1 OD in [12] and 1.55 OD in [10].
ch4-4-20 R292G (antibody) had a Koff WT/Mut in [2] of 0.67.
Consider ch4-4-20 K326E (antibody), for which the values for the Kd in experiment [8] and in [3] were 51.7 nM and 92 nM, respectively. Also, the figures for the koff in [8] and in experiment [3] were 0.043 s⁻¹ and 0.112 s⁻¹, respectively. For the same substance, the kon in experiment [3] came out at 1.23e+06 M⁻¹ s⁻¹. Also, the fold increase vs wt turned out to be 3.5 x in experiment [7] and 2 x in experiment [5]. Also, the ELISA, OD in experiment [10] was 1.25 OD; in experiment [5], 1 OD.
Take ch4-4-20 K392T, P396L (antibody): the Koff WT/Mut in experiment [6] stood at 1.64; in [2] it was 2.3. The Kd is 50 nM in experiment [2] and 84 nM in experiment [3]. Also, the figures for the koff in experiment [2] and in [3] were 0.041 s⁻¹ and 0.104 s⁻¹, respectively. For the same substance, the fold increase vs wt in [7] is 2.5 x; in [5] it was 4.5 x. In addition, the values for the fold vs wt in experiment [7] and in experiment [5] were 2.5 X and 4.5 X, respectively.
With ch4-4-20 A330V (antibody), the Koff WT/Mut in [2] is 0.61.
In the case of 2B6 (panel FIG. 34B-1) (antibody), the koff in experiment [13] is 0.13 s⁻¹.
On to 2B6 (panel FIG. 34B-2) (antibody), for which, in experiment [13], the Kd worked out at 7 nM and the koff was 0.06 s⁻¹.
For ch4-4-20 F243I, V379L (antibody), in experiment [2], the Kd turned out to be 120 nM and the koff was found to be 0.113 s⁻¹. In experiment [3], this substance gave a Kd of 99.7 nM and an off-rate constant (koff) of 0.105 s⁻¹.
In the case of ch4-4-20 E293V, Q295E, A327T (antibody), the Koff WT/Mut in [6] came to 0.86. In experiment [2], the Kd was determined as 86 nM, the Koff WT/Mut came out at 1.3 and the off-rate (koff) came out at 0.074 s⁻¹. For the same substance, in experiment [3], the Kd amounted to 195 nM and the koff was found to be 0.198 s⁻¹. Further, in experiment [5], the fold increase vs wt worked out at 0.4 x and the fold vs wt is 1.4 X.
In the case of ch4-4-20 K248M (antibody), the Koff WT/Mut was 0.977 in [6] and 1.03 in experiment [2]. For the same substance, the Kd in experiment [2] (Fc variant MGFc 37) stood at 100 nM; in [2] (Fc variant MGFc 40), 110 nM. Besides, the results for the koff in experiment [2] (Fc variant MGFc 37) and in experiment [2] (Fc variant MGFc 40) were 0.091 s⁻¹ and 0.09 s⁻¹, respectively.
ch4-4-20 V379M (antibody) registered a Kd in experiment [3] of 160 nM. This counts as sub-micromolar.
Turning to “soluble FcγRIIIA tetrameric complex (from UniProt P08637 17-203) (receptor)”, the EC50 (read off the curve) in experiment [14] stood at 1 µg/mL. In addition, the fold avidity vs monomeric receptor in [15] was in the range of 8 to 10 fold.
On to ch4-4-20 K288N, A330S, P396L (antibody), for which the Kd in experiment [8] amounted to 41.3 nM; in [2] it was 33.4 nM. For the same substance, the ELISA, OD in experiment [10] came out at 1.2 OD; in [5] it was 1 OD.
With ch4-4-20 K246I, K334N (antibody), the dissociation constant (Kd) in experiment [11] stood at 100 nM; in experiment [8] it was 45.3 nM. In [12], this substance yielded an ELISA, OD of 0.75 OD.
On to ch4-4-20 F243L, R255L (antibody), for which the Kd in [11] amounted to 91.8 nM; in experiment [2] it was 74.7 nM; in experiment [3], 90 nM; in [9], 82.3 nM. Further, the koff in [11] is 0.073 s⁻¹; in [2] it was 0.09 s⁻¹; in experiment [3], 0.075 s⁻¹; in experiment [9], 0.1 s⁻¹. Moreover, the ELISA, OD stood at 0.1 OD in [4] and 0.37 OD in experiment [12]. Moreover, the fold vs wt in [5] came out at 1 x.
ch4-4-20 A330V, G427M (antibody) showed a Koff WT/Mut in experiment [2] of 0.62.
Substance ch4-4-20 N276Y (antibody) came in with a Koff WT/Mut in [2] of 0.64.
Consider ch4-4-20 G316D, A378V, D399E (antibody), for which the dissociation constant Kd amounted to 46 nM in [2] and 72 nM in experiment [3]. Moreover, the figures for the koff in experiment [2] and in experiment [3] were 0.06 s⁻¹ and 0.117 s⁻¹, respectively. The fold increase vs wt amounted to 14 x in [7] and 1.5 x in experiment [5]. The values for the fold vs wt in experiment [7] and in experiment [5] were 14 X and 1.5 X, respectively.
With ch4-4-20 Mut 6 (S219V) (antibody), the koff is 0.173 s⁻¹ in experiment [11], 0.06 s⁻¹ in experiment [8] and 0.175 s⁻¹ in experiment [3]. In addition, the Kd stood at 66.5 nM in [8] and 264 nM in experiment [3]. In experiment [3], this substance registered an on-rate constant (kon) of 667000 M⁻¹ s⁻¹. In addition, the values for the ELISA, OD in [10] and in experiment [5] were 0.35 OD and 0.6 OD, respectively.
